Assay results: patent publication US9474783B2, “HIP/PAP protein and derivatives thereof for use in treating cancer” (priority 2012, dated 2016)

B1: ALF-5755 (protein, listed as Homo sapiens)
chain: MEEPQRELPSARIRCPKGSKAYGSHCYALFLSPKSWTDADLACQKRPSGNLVSVLSGAEGSFVSSLVKSIGNSYSYVWIGLHDPTQGTEPNGEGWEWSSSDVMNYFAWERNPSTISSPGHCASLSRSTAFLRWKDYNCNVRLPYVCKFTD

What was measured:
PANC1 cells = assay: In vitro pancreatic cancer cell line growth (cell density, optical density); format: cell-based, Human
Description: (§1) The MCF7 (Human breast adenocarcinoma) and PANC1 (Human pancreatic carcinoma, epithelial-like cell line) cell lines were obtained from LGC-Promochem ATCC.
(§2) Sub-confluent cultures (70-80%) were split using Trypsin/EDTA and collected in serum free culture medium. Cell concentration was determined using Trypan blue staining and a Mallasez counting chamber.
(§3) Briefly, 1,000 cells per well were seeded in 96 well-plates. Cells were maintained in DMEM medium complemented with 1% antibiotics (P/S), and cultured in a humidified atmosphere at 37° C. and 5% CO2.
(§4) Cells were maintained in culture for 1 to 3 days (1 plate for each day of analysis). For control of cell survival/growth and validation of the experiments, equivalent cultures were performed in the presence of Foetal calf serum (5%).
(§5) The effect of increasing concentrations of ALF-5755 ranging from 0 to 2000 ng/ml was investigated over time up to 72 hours. Results for the optimal concentration (2000 ng/mL) only are presented below.
(§6) For each time point (24, 48, and 72 hours), 60 minutes prior to cell proliferation measurement, each plate received 10 μL of cell proliferation reagent per well.
(§7) The absorbance of the samples was measured against a background control using a 96-well plate reader at 450 nm with a reference wavelength of 690 nm.
(§8) Raw data are expressed as optical density.
(§9) Two-way ANOVA were performed to study ALF-5755 concentration incidence on cell growth and cell growth over time for each condition of culture (+/−ALF-5755 and +/−doxorubicin). Post-hoc Bonferroni were applied to reveal effects of ALF-5755 concentration at each time point, if any.

MCF7 cells = assay: In vitro mammary cancer cell line growth (cell density, optical density); format: cell-based, Human
Description: as §1, §2, §3, §4, §5, §6, §7, §8, §9

[1] = system: DHDK12 cells (liver metastases of colorectal cancer); assay: In vivo model of liver metastases of colorectal cancer (tumor area after partial hepatectomy); parameters: species or system BDIX rat; details: 0.5 mg/kg single injection; for ratio of tumor liver area to total liver area: 14 days after treatment
Description: DHDK12 cell line was derived from liver metastatic cells developed by BDIX rats after 1,2-Dimethylhydrazine) intoxication (chemically-induced cancer). Therefore, all experiments were performed in BDIX rat, the syngenic corresponding strain.
Cells were expanded in vitro in a medium composed of 50% DMEM and 50% F12 (Invitrogen Gibco, Pailsey, GB) complemented with foetal calf serum (10%) and a combination of antibiotics (1% penicillin/streptomycin). Absence of mycoplasm contamination was controlled.
At day 1 of the experiment, rats were anesthetized with isofluran gas. After laparotomy they received 20 millions of DHDK12 cells.
At day seven after the injection of cancerous cells, when the tumor was already implanted, two types of hepatectomies were performed: either 30% or 70% of the liver was resected.
The control group was composed of animals receiving either the equivalent volume of vehicle or no injection.
Fourteen days after hepatectomy and treatment, animals were sacrificed. Serial sections of complete liver were performed for each animal (millimetric sections, the number of sections depending on the liver size and morphology). The tumor expansion was assessed by quantifying in square pixels (pixel^2) the area of each cancer cells nodule. The complete area of each section was also recorded and a ratio of the nodule/total area was calculated. Analyses were performed with Adobe Photoshop CS3 software.
Depending on the experiment, one-tailed t-test or two-tailed Mann-Whitney tests were performed to quantify the effect of ALF-5755 on nodule expansion. Area of nodules was expressed as a percentage of total liver area.

[2] = system: PyMT cells (primary mammary carcinoma); assay: In vivo model of primary mammary cancer (tumor weight, survival)
Description: PyMT (Polyoma middle T) cell line was derived from a primary mammary carcinoma induced by PyMT oncogene activation in FBV mice. Therefore, all experiments were performed in FBV mice, the syngenic corresponding strain.
PyMT mice were sacrificed at 12/13 weeks when presenting a large tumoral mass. The tumour was dissected and cells were dissociated mechanically in DMEM/Glutamax medium and then filtrated. Dead cells were eliminated by centrifugation then viable cells were frozen in aliquots. For tumour implantation in FBV mice, appropriate number of aliquots cells was thawn.
At day 1 of the experiment, female mice received 1 million of PyMT cells, within the 8th mammal in the adipose tissue. Cells were injected as a solution in PBS (0.05 ml total pre-warmed at 37° C.).
Alzet pumps were implanted in the back of the mice, at the time of PyMT cell injection (experiment 1) or after tumor implantation, when doxorubicin treatment started (experiment 2). The pumps continuously delivered either 43.2 μg of ALF-5755 or vehicle per day for a period of 28 days.
Animals started to receive doxorubicin at the time when tumor was detected (15 days after PyMT cells injection for both, ALF-5755 and Vehicle groups) by intra-tumor injection. Animals receive during four weeks, a weekly dose of 1 mg/kg that was known to induce tumor cell-death.
At the end of doxorubicin treatment (6 weeks after the beginning of the procedure), animals were sacrificed.
The weight of the tumors was compared between the two groups by mean of non-parametric one tailed Mann whitney test. Survival was compared by mean of one-tailed exact Fischer test.

Row | Molecule | EC50 (PANC1 cells; Homo sapiens, PANC-1, PANC1 cells at 72H) | reduction of the cell growth (PANC1 cells; doxorubicin 2.5 μM, effective at 48 hours post-plating, maintained at 72 hours) | EC50 (MCF7 cells; Homo sapiens, MCF7 cells at 24H) | reduction of the growth of MCF7 cancerous cells (MCF7 cells; doxorubicin 75 μM, 24 hours post-plating, maintained at 72 hours) | ratio of tumor liver area to total liver area ([1]; after 30% partial hepatectomy, control ratio 0.14) | decrease of tumor/total liver area ratio versus controls ([1]; after 30% partial hepatectomy, versus non-injected controls, p=0.022) | ratio of tumor liver area to total liver area ([1]; after 70% partial hepatectomy, control ratio 0.29) | decrease of tumor/total liver area ratio versus controls ([1]; after 70% partial hepatectomy, versus vehicle, p=0.0026) | additional decrease of cell density in combination to doxorubicin (PANC1 cells; ALF-5755 2000 ng/mL + doxorubicin 2.5 μM versus doxorubicin alone, 24 hours post-plating) | maximum additional reduction in cell density in combination to doxorubicin (MCF7 cells; ALF-5755 2000 ng/mL + doxorubicin 75 μM versus doxorubicin alone, 72 hours) | influence on the doxorubicin effect on cell density (MCF7 cells; ALF-5755 at any of the tested concentrations (0 to 2000 ng/ml) with doxorubicin 75 μM) | deaths during the experiment ([2]; exp 1, ALF-5755 infusion with doxorubicin, n=3) | tumor weight at day 45 after implantation ([2]; exp 1, infusion 43.2 μg per day for 28 days from implantation, with weekly intra-tumor doxorubicin, control 1.1±0.2 g, P=0.059) | deaths during the course of the experiment ([2]; exp 2, doxorubicin treated animals (1 mg/kg weekly intra-tumor for 4 weeks), same as group without doxorubicin) | deaths during the experiment, in total ([2]; exp 2, groups with and without doxorubicin pooled, n=14, placebo 6 of 14 died, P=0.008) | deaths during the course of the experiment ([2]; exp 2, infusion 43.2 μg per day for 28 days from tumor detection, group without doxorubicin, placebo 3 of 7 died)
1 | COc1cccc2c1C(=O)c1c(O)c3c(c(O)c1C2=O)C[C@@](O)(C(=O)CO)C[C@@H]3O[C@H]1C[C@H](N)[C@H](O)[C@H](C)O1 [doxorubicin, reference compound] | 2.5 µM | about 50% | 75 µM | about 50% | – | – | – | – | – | – | – | – | – | – | – | –
2 | B1 | – | – | – | – | 0.05 | about 60% | 0.15 | about 50% | up to 22% | 33% | did not compromise the doxorubicin effect | no death observed | 0.63 ± 0.12 g | exact same result | none | no death was observed
